The values that follow come from patent US20190241655A1.

Test [1] addresses human PI16 (Peptidase inhibitor 16) expressed on the cell surface (human) (UniProt Q6UXB8). Nature of the test: flow cytometry, ILT3Fc on PI16-transfected 3A9 cells.
Test [2] has the same target. Nature of the test: flow cytometry, ILT3Fc cross-linked with anti-human Fc antibody on PI16-transfected 3A9 cells.
In test [3] the target is ILT3-CD3z fusion protein on reporter cells (human). Kind of test: cell-based or functional assay.
Sequence of ILT3-CD3z fusion protein on reporter cells (human) (Q8NHJ6 22-259): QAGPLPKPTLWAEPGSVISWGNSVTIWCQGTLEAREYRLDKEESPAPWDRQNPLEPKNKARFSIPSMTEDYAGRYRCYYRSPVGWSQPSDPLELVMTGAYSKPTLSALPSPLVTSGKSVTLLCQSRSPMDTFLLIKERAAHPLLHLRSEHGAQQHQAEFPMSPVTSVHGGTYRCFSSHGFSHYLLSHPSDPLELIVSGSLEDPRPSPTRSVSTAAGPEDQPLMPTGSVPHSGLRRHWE

As for ILT3Fc (Fc fusion), the percent of cells stained in test [1] worked out at 8.3%; in test [2] it was 23%.
With “human PI16 (Peptidase inhibitor 16) expressed on the cell surface (from UniProt Q6UXB8 28-463) (ligand)”, the luciferase activity of ILT3 reporter cells in test [3] came out at 2 log.
